Publication PMC11447106 (Clinical and Translational Medicine, 2024)
Substitutions are numbered along the chain they refer to. Numbers in names are those of the source.

Key:
[1] = H2O2-induced nuclear translocation, fractionation; settings: glycan lost; control: NCI-H1299 NRF2-WT cells + H2O2
[2] = RT-PCR of NRF2 target genes in xenografts; settings: glycan lost; control: NCI-H1299 NRF2-WT xenografts
[3] = xenograft growth under cisplatin 1.5 or 3.0 mg/kg; settings: glycan lost; control: NCI-H1299 NRF2-WT xenografts + cisplatin
[4] = CHX chase, Flag-NRF2 remaining; NCI-H1299, HEK293T; settings: glycan lost; control: Flag-NRF2WT
[5] = NRF2 level in xenografts, IHC and WB; settings: glycan lost; control: NCI-H1299 NRF2-WT xenografts
cisplatin IC50 in cells = settings: glycan lost; control: NCI-H1299 NRF2-WT cells
[6] = endogenous NRF2 stability by WB, knock-in cells; settings: glycan lost; control: NCI-H1299 NRF2-WT cells
[7] = H2O2-induced ARE luciferase activity; settings: glycan lost; control: NCI-H1299 NRF2-WT cells + H2O2
[8] = WB of NRF2 after OGT KD or overexpression; settings: glycan lost; control: control NCI-H1299 cells
GST-OGT^T444E = biological target: T1, GST-OGT^T444E (UniProt O15294-3 1-1036, T444E); assay: pull-down; in vitro GST pull-down; GST-OGT^WT or GST-OGT^T444E with His-NRF2; settings: both partners purified
T1 construct: OGT with T444E (mimics phosphorylation at Thr444); The printed Thr444 fits the 1036-residue isoform
T1 sequence (looked up): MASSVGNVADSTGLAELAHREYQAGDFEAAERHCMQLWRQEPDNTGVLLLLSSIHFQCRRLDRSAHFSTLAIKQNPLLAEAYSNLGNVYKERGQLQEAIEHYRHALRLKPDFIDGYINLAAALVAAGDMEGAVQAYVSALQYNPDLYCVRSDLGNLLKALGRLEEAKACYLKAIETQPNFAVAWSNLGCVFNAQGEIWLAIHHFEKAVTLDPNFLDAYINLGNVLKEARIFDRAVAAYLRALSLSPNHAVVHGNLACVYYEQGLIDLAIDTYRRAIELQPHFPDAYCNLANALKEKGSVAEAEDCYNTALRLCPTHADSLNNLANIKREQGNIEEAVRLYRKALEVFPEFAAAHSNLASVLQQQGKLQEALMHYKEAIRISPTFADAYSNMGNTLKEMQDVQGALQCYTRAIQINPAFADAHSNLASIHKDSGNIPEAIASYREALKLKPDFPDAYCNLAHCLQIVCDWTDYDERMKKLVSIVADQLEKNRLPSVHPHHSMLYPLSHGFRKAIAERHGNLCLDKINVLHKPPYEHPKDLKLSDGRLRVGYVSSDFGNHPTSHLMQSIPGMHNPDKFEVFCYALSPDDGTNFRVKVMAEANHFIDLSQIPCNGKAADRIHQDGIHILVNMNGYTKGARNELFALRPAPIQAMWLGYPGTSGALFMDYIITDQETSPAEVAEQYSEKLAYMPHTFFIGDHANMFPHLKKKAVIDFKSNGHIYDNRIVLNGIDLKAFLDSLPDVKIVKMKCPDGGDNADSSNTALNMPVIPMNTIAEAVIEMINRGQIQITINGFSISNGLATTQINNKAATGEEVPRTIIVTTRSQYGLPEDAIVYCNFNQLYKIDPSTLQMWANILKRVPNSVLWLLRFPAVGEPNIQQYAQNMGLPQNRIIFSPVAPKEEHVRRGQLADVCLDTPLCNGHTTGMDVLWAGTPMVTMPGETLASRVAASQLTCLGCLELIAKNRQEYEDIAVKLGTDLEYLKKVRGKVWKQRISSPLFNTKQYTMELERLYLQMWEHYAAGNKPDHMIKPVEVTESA

GST-OGT^WT = biological target: T2, GST-OGT^WT (UniProt O15294-3 1-1036); assay: as above; settings: both partners purified
T2 construct: OGT, wild type; The printed Thr444 fits the 1036-residue isoform
T2 sequence (looked up): T1 sequence (looked up) with E444T

B1: NRF2: S103A (protein)
parent chain: MMDLELPPPGLPSQQDMDLIDILWRQDIDLGVSREVFDFSQRRKEYELEKQKKLEKERQEQLQKEQEKAFFAQLQLDEETGEFLPIQPAQHIQSETSGSANYSQVAHIPKSDALYFDDCMQLLAQTFPFVDDNEVSSATFQSLVPDIPGHIESPVFIATNQAQSPETSVAQVAPVDLDGMQQDIEQVWEELLSIPELQCLNIENDKLVETTMVPSPEAKLTEVDNYHFYSSIPSMEKEVGNCSPHFLNAFEDSFSSILSTEDPNQLTVNSLNSDATVNTDFGDEFYSAFIAEPSISNSMPSPATLSHSLSELLNGPIDVSDLSLCKAFNQNHPESTAEFNDSDSGISLNTSPSVASPEHSVESSSYGDTLLGLSDSEVEELDSAPGSVKQNGPKTPVHSSGDMVQPLSPSQGQSTHVHDAQCENTPEKELPVSPGHRKTPFTKDKHSSRLEAHLTRDELRAKALHIPFPVEKIINLPVVDFNEMMSKEQFNEAQLALIRDIRRRGKNKVAAQNCRKRKLENIVELEQDLDHLKDEKEKLLKEKGENDKSLHLLKKQLSTLYLEVFSMLRDEDGKPYSPSEYSLQQTRDGNVFLVPKSKKPDVKKN
- localisation_or_trafficking [1]: decreases
- other: transcriptional activity [2]: decreases
- other: cisplatin resistance [3]: decreases
- degradation_or_half_life [4]: decreases
- expression_or_secretion [5]: decreases
- other: cisplatin resistance, IC50 (cisplatin IC50 in cells): decreases, 19.53 vs 31.83
- degradation_or_half_life [6]: decreases
- other: transcriptional activity [7]: decreases

B2: NRF2: S111A (protein)
parent chain: B1 parent chain
- degradation_or_half_life [4]: no change

B3: NRF2: OGT knockdown (protein)
parent chain: B1 parent chain
- expression_or_secretion [8]: decreases

B4: His-NRF2 (natural protein, UniProt Q16236 1-605, looked up)
chain: B1 parent chain
notes: NRF2; Construct details are said to be in the Supplementary Information
- binding result (GST-OGT^T444E): binds
- binding result (GST-OGT^WT): binds

B5: NRF2: T350A (protein)
parent chain: B1 parent chain
- degradation_or_half_life [4]: no change

B6: NRF2: S310A (protein)
parent chain: B1 parent chain
- degradation_or_half_life [4]: no change
